Assay results as given in article PMC4446444, “Stable complex formation of CENP-B with the CENP-A nucleosome”.

T1: CENP-B DBD (Homo sapiens, UniProt P07199 1-129)
T1 sequence: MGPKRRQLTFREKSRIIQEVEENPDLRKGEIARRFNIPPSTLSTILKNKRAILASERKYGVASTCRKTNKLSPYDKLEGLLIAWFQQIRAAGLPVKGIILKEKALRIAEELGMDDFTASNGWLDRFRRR

B1: 166-bp alpha-satellite DNA, proximal CENP-B box (naked) (dsDNA)
DNA 1: ATCTATTTGGACCGCATTGAGGCCTTCGTTGGAAACGGGATTTCTTCATTTCATGCTAGACAGAAGAATTCTCAGTAACTTCTTTGTGCTGTGTGTATTCAACTCACAGAGTGGAACGTCCCTTTGCACAGAGCAGATTTGAAACACTCTTTTTGTAGTCGACGAT
DNA 2: ATCGTCGACTACAAAAAGAGTGTTTCAAATCTGCTCTGTGCAAAGGGACGTTCCACTCTGTGAGTTGAATACACACAGCACAAAGAAGTTACTGAGAATTCTTCTGTCTAGCATGAAATGAAGAAATCCCGTTTCCAACGAAGGCCTCAATGCGGTCCAAATAGAT

Tests used:
[1] = target: His6-tagged CENP-B DBD complexed with a 21 base-pair DNA (human) (UniProt P07199); assay: pull-down; His6-tagged CENP-B DBD with 21 base-pair CENP-B box DNA (50 nM) held on Ni-NTA agarose beads; histone complex 50 nM; 20 mM Tris-HCl pH 8.0, 300 mM NaCl, 60 mM imidazole, 0.3% Tween-20, BSA, 4 °C 60 min; washes with 500 mM NaCl, 30 mM imidazole; 16% SDS-PAGE with Coomassie
[2] = target: T1, CENP-B DBD; assay: competition; naked competitor; DBD-DNA complex increases with DNA amount; Buffer of the EMSA and competition assays not in material (6% native PAGE, ethidium bromide); pull-down: 20 mM Tris-HCl pH 8.0, 300 mM NaCl, 60 mM imidazole, 0.3% Tween-20, 0.01 ug/ul BSA, 4 C, 60 min; settings: protein: recombinant; blunt

| Molecule | percent of H4 in the CENP-B-bound fraction against the CENP-A-H4 complex [1] [%] | binding result [2] |
| --- | --- | --- |
| H3.1^CATD-H4 complex (from UniProt P68431 1-75; P49450 75-114; P68431 114-136; P62805 1-103) | 4 | – |
| B1 | – | binds |
